From the nanobody polyreactivity screen of Harvey et al. (2022)

Assay: yeast display, Sf9 membrane polyspecificity reagent, FACS + sequencing; frameworks hold sequencing errors
Outline: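 Polyreactivity labels are assigned by the sorting gate from which each nanobody was recovered. The gates were low and high (top ~1%), set on anti-HA fluorescence for expression and streptavidin fluorescence for reagent binding. Before sorting, galactose-induced (36–48 hours) yeast display cells were stained for 1 hour at 4 °C with 10% biotinylated, detergent-solubilized Sf9 membrane reagent.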

Sequence	polyreactivity (PSR sort gate)
QVQLVESGGGLVQAGGSLRLSCAASGLTFDYYAMGWYRQAPGKERELVAAISISGDRTYYADSVKGRFTISRDNAKNTVYLQMNSLKPEDTAVYYCNARYPGSFRDDYWGQGTQVTVSS	high polyreactivity
QVQLVESGGGLVQAGGILRISCAASGSISSYYAMGWYRPAPGKERELVAAITSGGRTYFADSVKGRFTISRDNAKNTVYFQMNSLKQEDTAVYYCNARTARNPIKGRASDYWGQGTQVTVSS	high polyreactivity
PVQLQESGGGLVQAGGSLRLSCAASGNIFDADIMGWNRQAPGKESDLVACIADGGSTNYADSVKGRFTISRDNAKNTVYLQMNSLKPEDTAVHYCAAIAYPDIPTCFDYDSDYFFRGQGTQVTVSS	low polyreactivity
QVQLVESGGGLVQAGGSLRLSCAASGRIFWSNAMGWYRQAPGKERELVATISSGGRTYYADSVKGRFTISRDNAKNTVYLQMNSLKPEDTAVYYCNATSGYKHAWRSENGYWGQGTQVTVSS	low polyreactivity
QVQLVESGGGLVQAGGSLRLSCAASGRIFATYAMGWYRQAPGKERELVAAISDSGGRTYYADSVKGRFTISRDNAKNTVYLQMNSLKPEDTAVYYCARRAVYGIFDYWGQGTQVTVSS	high polyreactivity
QVQLVESGGGLVQAGGSLRLSCAASGLNCKTYTMGWDRQAPGKEREFVAAITTSGGSTYYADSVKGRFTISRDNAKNTVYLQMNSLKPEDTAVYYCDAVWCKSFQGSSYGMNYWGQGTLVTVSS	high polyreactivity
QVQLVESGGGLVQAGGSLRFSCAASGRIFGRYAMGWYRQAPGKERELVAAISSTGGSTYYADSVKGRFTISRDNANNTVYLQMNSLKPEDTAVYYCATVWYGRYYWATEYWGQGTQVTVSS	high polyreactivity
QVQLVDAGGRLVQAGGSLRLSCAASGRIFAYYAMGWSRQAPGKDRELVSGISQRGSRTYYADSVKGRFTISRDNEKNTVYLQMNSLKPEDTAVYYCNTQRWGSGVGSLMDYWGQGTQVTVSS	high polyreactivity
QVQLVESGGGLVQAGGSLRLICAASGSTLYTYAMGWYRQAPGKERELVATISWSGSSTYYADSVKGRFTISRDNAKNTVYLQMNSLKPEDTAVYYCAAPYHYWYRLDYWGQGTQVTVSS	high polyreactivity
QVQLVESGGGLVQAGGSLRLSCAASGSIFLPYAMGWYRQAPGKERELVATIRGRGGSTYYADSVKGRFTISRDNAKITVYLLMNSPKPEDTAVYYCAAKNGDRYARGYWGQGTQVTVSS	high polyreactivity
QVQLVESGGGLVQAGGSLRLSCAASGSTFTNYAMGWYRQAPGKERELVAAITSVGSTYYADSVKGRFTISRDNAKNTVYLQMNSLKPEDTAVYYCNVVYRDQYNYWGQGTQVTVSS	low polyreactivity
QVQLVESGGGLVQAGGSLRLSCAASGRTFAYYAMGWYIPGPGKERELVAAISSGGSTYYADCVKGRFTISRDNAKNTVYLQMNSLIPEDTAVYYCATRDKQYYYWGQGTQVTVSS	high polyreactivity
QVQLVESGGGLVQAGGSLRLSCAASGSTLASYAMGWYRQAPGKERELVAVIDSGGSTYYADSVKGRFTISRDNAKNTVYLQMNSLKPEDTAVYYCAAGWEFSGVLTLFGYWGQGTQVTVSS	low polyreactivity
QDQLVESGGGLGQAGGSLRLSCAASGSTFNNYAMGWYRQAPGKERELVAVITKRGGSTYYADSVKGRFTISRDTAKNTVHLQMNSLKPEDTAVYYCPASSLYDGYWGQGTQVTVSS	high polyreactivity
QVQLEETGRGLVQAGGSLRISSAASGGIFAHYVMGWYRQAPGKARELVAAISASGGSTYYADSVKGRFTISRDNAKNTVYLQMNSLKPEDTAVYYCAAYYLAWFADRYKTVGSAMDYWGQVTQVTVSS	low polyreactivity
QVQLVESGGGLVQAGGSLRLSCAASGRTFHDYAMGWYRQAPGKERELVAAISISGVSTYYADSVKGRFTSSRDNAKNTVYLQMNSLKPVDTAVYYCAAAQDAAVYWRPGGYDYWGQGTQVTVSS	low polyreactivity
QVQLVESGGGLVQAGGSLRLSCAASGRIFGRDMGWYRQAPGKERELVATITWRGGSTYYADSVKGRFTISRDNAKNTVYLQMNSLKPEDTAVYYCTAALSHDYWHYRLGYWGQGTQVTVSS	low polyreactivity
QVQLVESGGGLVQAGGSLRLSCAASGLTFGGYVMGWYRPAPGKERELVAAISWSGTRTYYADSVKGRFTISRDNAKNTVYLQMNSLKPEDTAVYYCAARVKSYNRGYYWGQGTQVTVSS	high polyreactivity
QVQLVESGGGLVQAGGSLRLSCAASGITFTAYAMGWYRQAPGKERELVATINSTGITNYADSVKGRFTISRDNAKNTFYLQMNCLKAEDTAVSYCGADVLDISSYDGMDYWGKGTQVTVSS	low polyreactivity
QVQLVESGGGLVQAGGSLRLSCAASGSIFRYYAMGWYRQAPGKERELVAAIRWSGGRTYYADSVKGRFTISRDNAKNTVYLQMNSLKPEDTAVYYCAADQPDYKTNVRYYYWGQGTQVTVSS	high polyreactivity
QDHLVESGGGLVQAGGSLRLICAASGSTFTQYTMGWYRQAPGKERELVAAISSGGGRTYYADSVKGRFTISRDNAKNTVYLQMYSLKPEDTAFYYCAADYQNSRRGRGNSQYYYWGQGTQVTVSS	low polyreactivity
QVQLVESGGGLDQAGGSLRVSCAASGSILRYTMGWYRQAPGKERELVAAITRSGTSTYYADSVKGRFTISRDNAKNTVYLQMNSLKPEDTAVYYCAADDHYGRGFQYYYWGQGTQVTVSS	high polyreactivity

Sequence	polyreactivity (PSR sort gate)
QVHLVESGGGLVQAGGSLRLSCAASGYTFRYYAMGWYRQAPGKERELVAAINWSGGSTYYADSVKGRFTISRDNAKNTVYLQMNSLTPEDTAVYYCAADPDGDLDIDYDYWGQGTQVTVSS	low polyreactivity
QVQLVESGGGLVQAGGSLRLSCAASGSIYEYYVMGWYRHAPGKERELVAAISYSGDSTYYADSVKGRFTISRDNAKNTVYFQMNSLKPEDTAVYYCAAQYSRVIPPGYDYWGQGSQVTVSS	high polyreactivity
QVQLVESGGGLVQAGGSLRLSCAASGSTFVQYAMGWYRQAPGKERELVAAIRGRGDSTYYADSVKGRFTISRDNAKNTVYLQMNSLKPEDTAVYYCAARGQGSRGMYYWGQGTQVTVSS	low polyreactivity
QVQLVESGGGLVQAGGSLRLSCAASGRTFSYYAMGWYRQAPGKERELVATIRFSAGGTYYADSVKGRFTISRDNAKNTVYLQMNSLKPEDTAVYYCNADSIDPFLYDYWGQGTQVTVSS	low polyreactivity
QVQLVESGGGLVQAGGSLRLSCAASGSILAGYAMGWYRQAPGKERELVAAISDSGGNTYYADSVKGRFTISRDTAKNTVYLQMNSLKPEDTAVYYCAADLGYGPLRELEYWGQGTQVNVSS	low polyreactivity
QVQLVESGGGLVQAGGSLRLSCAASGSTLSKYGMGRYRQAPGKERELVAAISYSSGSTYYADSVKGRFTISRDNAKNSVYLQMNSLKPEDTAVYYGAADRFRRLHYWTYDYWGQGTQVTVSS	high polyreactivity
QVQLVESGGGLVQAGGSLRLSCAASGIIFYIYTMGWYRQAPGKERELVAAINRSGSRTYYADSVKGRFTISRDNAKNTVYLQMNSLKPEDTAVYYCAAGTGSRDDYWGQGTQVTVSS	high polyreactivity
QVQLVESGGGLVQAGGSLRLICAASGSTFVPNAMGGYRQAPGKERELVAAITASTGRTYYADSVKGRFTISRDNAKNTVYLQMNSLKPEDTAVYYCAAYFVYWSDLEHYYPVEYGYWGQGTQVTVSS	high polyreactivity
QVQLVEAGGGLVQAGGSLRLSCAASGRIIVRNAMGWYLQPPGKESELVAAISWSSGGTYYADSVKGRFTISRDNAKNTVYLQMNSLKPEDTAVYYCNADPSRAGDYWGQGTQVTVSS	low polyreactivity
QVQLVESGGGLVQAGGSLRISCAASGFTFVINEMGWYRPAPGKERELVADITSGGDTYYADSVKGRFTISRDNAKNTVYLQMNSLKPEDTAVYYCAAYIYPDWIYLLYGYWGQGTQVTVSS	low polyreactivity
QVQLQESGGDLEQAGGSLRLSCTASGTISDVRVMGWYRQAPGKERELVATISYVTITYYADSVKGRFTISRDSEKHRVSADDEPESGRYRGVLLRYYWGLGTQVTVSS	low polyreactivity
QVQLVESGVGLVQAGGILRLSCAAYGTFGSYAMGWYRQAPGKERELVASISGTGGDTYYADSVKGRFTISRDNAKNTVYLQMNSLKPEDTAVYDCAARWSRYWYLGSWLYDYWGQGTQVSVSS	high polyreactivity
QVQLVESGGGLVQAGGSLRLTCAASGSTFVLYARGWYRQAPGKERELVAAITRRGGDTYYADSVKGRFTISRDNAKNTVYLQMNSLKPEDTAVYFCATDYTTYGRYDYWGHGTQVTVSS	low polyreactivity
QVQLVESGGGLVQAGGSLRLSCAASGITFAFYAMGWYRQAPGKERELVAAISWSGTRTYYADSVKGRFTISRDNAKNTVYLQMNSLKPEDTAVYYCAADYQAGYKMFDYWGQGTQVTVSS	low polyreactivity
QVQLVESGGGLVQAGGRLRLSCAASGIIRGSYAMGWYRQAPGKERELVAGINSGGGTYYADSVKGRFTISRDNAKNTVYLQMNSLKPEDTAVYYCNARKSSGLSSYDWYSWEYGYWGQGTQVTVSS	low polyreactivity
QVHLVESGGGLVQAGGSLRLSCAASGTTFGDYAMGWYRQAPGKERELVAAISLSAGSTYYADSVKGRFTISRDNAKNTVYLQMNSLKPEDTAVYYCAAEYQYHWAYIYYYWGQGTQVTLSS	high polyreactivity
QVQLVESGGGLVQAGGSLRLSCAASGSIFNINAMGWYRQAPGKERELVATITSGGTASYADSVKGRFTISRDNAKNTVYLQMNSLKPEDTAVYDCNAEMYPIVKAGRQHPRRYDYWGQGTQVTVSS	low polyreactivity
QVQLVESGGGLVQAGGSLRLICAASGRTFYVYAMGWYRQAPGKEREFVARITSNGGSTTYADSVKGRFTISRDNAKNTVYLQMNSLKPDDTAVYYCNADYDPEDMDYWGQGTQVTVSS	low polyreactivity
QVQLVESGGGIVQAGGSLRLSCAASGIIFGYYAMGWYRQAPGKEREMVAAINQDGSSTYYADSVKGRFTISRDYAKNTVYLQMNSLKPEDTAVFYCNARGVPRQDARMGYWGQGTQVTVSS	low polyreactivity
QVQLEESGGRLVQAGGSLRLRCAASGLMYTRYVMGWYRQAPGKERELVAVISSGGSTYYADSVKGRFTISRDNAKNTVYLQMNSLIAEDTAVYYCAAYLRSSHVTYDYWGQGTQVTVSS	high polyreactivity
QVQLVESGGGLVEAGGSLRLSCAASGRIFCYNAMGWYRQAPGKERELVAAIRSGGRTHYADSVKGRFTISRDNAKNTVTLQMNSLKPEDTAVYYCAARSVPYPYRRNPYDYWGQGTQVTVSS	high polyreactivity
